The labels stand for the following.
B1: HigB2 (protein)
chain: MKSVFVESTIFEKYRDEYLSDEEYRLFQAELMLNPKLGDVIQGTGGLRKIRVASKGKGKRGGSRIIYYFLDEKRRFYLLTIYGKNEMSDLNANQRKQLMAFMEAWRNEQS

What all share (assay): competition
The target in one assay is HigA2 3-33 peptide 3-33 (Vibrio cholerae, UniProt Q9KMA5).
The next assay addresses HigA2 3-23 peptide 3-23 (Vibrio cholerae, UniProt Q9KMA5).
The target of the assay “HigB2” is B1.

As a reminder, the Kd is the equilibrium constant for the complex coming apart. A low value points to tighter binding. Turning to B1, the Kd with HigA2 3-33 peptide 3-33 was about 0.127 nM; with HigA2 3-23 peptide 3-23, 0.003 nM.

B2: HigA2 (protein)
chain: MSNRDLFAELSSALVEAKQHSEGKLTLKTHHVNDVGELNISPDEIVSIREQFNMSRGVFARLLHTSSRTLENWEQGRSVPNGQAVTLLKLVQRHPETLSHIAEL
As for B2, the Kd with HigB2 was determined as 0.016 nM.

The values are drawn from article PMC8438204 (2021).
